Laboratory results: US8524444

T1: polypeptide 4.2, FITC(Aha)STPFSSANMK (V→F)
T1 chain: STPFSSANMK

T2: polypeptide 4.1, FITC(Aha)STPVSSANMK (wt CK2-derived peptide)
T2 chain: STPVSSANMK

T3: polypeptide 4.5, FITC(Aha)STPVSRANMK (S→R)
T3 chain: STPVSRANMK

T4: polypeptide 4.3, FITC(Aha)STPRSSANMK (V→R)
T4 chain: STPRSSANMK

T5: polypeptide 4.4, FITC(Aha)STPVSFANMK (S→F)
T5 chain: STPVSFANMK

T6: polypeptide 4.8, FITC(Aha)STPVSRANMK(DEAC), unglycosylated
T6 chain: STPVSRANMK

T7: polypeptide 4.6, FITC(Aha)STPVSSANMK(DEAC), unglycosylated
T7 chain: STPVSSANMK

B1: O-Linked N-acetylglucosaminyltransferase (OGT) (protein)
chain: MHYKEAIRISPTFADAYSNMGNTLKEMQDVQGALQCYTRAIQINPAFADAHSNLASIHKDSGNIPEAIASYRTALKLKPDFPDAYCNLAHCLQIVCDWTDYDERMKKLVSIVADQLEKNRLPSVHPHHSMLYPLSHGFRKAIAERHGNLCLDKINVLHKPPYEHPKDLKLSDGRLRVGYVSSDFGNHPTSHLMQSIPGMHNPDKFEVFCYALSPDDGTNFRVKVMAEANHFIDLSQIPCNGKAADRIHQDGIHILVNMNGYTKGARNELFALRPAPIQAMWLGYPGTSGALFMDYIITDQETSPAEVAEQYSEKLAYMPHTFFIGDHANMFPHLKKKAVIDFKSNGHIYDNRIVLNGIDLKAFLDSLPDVKIVKMKCPDGGDNADSSNTALNMPVIPMNTIAEAVIEMINRGQIQITINGFSISNGLATTQINNKAATGEEVPRTIIVTTRSQYGLPEDAIVYCNFNQLYKIDPSTLQMWANILKRVPNSVLWLLRFPAVGEPNIQQYAQNMGLPQNRIIFSPVAPKEEHVRRGQLADVCLDTPLCNGHTTGMDVLWAGTPMVTMPGETLASRVAASQLTCLGCLELIAKNRQEYEDIAVKLGTDLEYLKKVRGKVWKQRISSPLFNTKQYTMELERLYLQMWEHYAAGNKPDHMIKPVEVTESA
B2: Proteinase K (protein)
chain: AAQTNAPWGLARISSTSPGTSTYYYDESAGQGSCVYVIDTGIEASHPEFEGRAQMVKTYYYSSRDGNGHGTHCAGTVGSRTYGVAKKTQLFGVKVLDDNGSGQYSTIIAGMDFVASDKNNRNCPKGVVASLSLGGGYSSSVNSAAARLQSSGVMVAVAAGNNNADARNYSPASEPSVCTVGASDRYDRRSSFSNYGSVLDIFGPGTSILSTWIGGSTRSISGTSMATPHVAGLAAYLMTLGKTTAASACRYIADTANKGDLSNIPFGTVNLLAYNNYQA

How the values were obtained:
[1] = molecular target: T1, polypeptide 4.2, FITC(Aha)STPFSSANMK …
[2] = molecular target: T2, polypeptide 4.1, FITC(Aha)STPVSSANMK …
[3] = molecular target: T3, polypeptide 4.5, FITC(Aha)STPVSRANMK …
[4] = molecular target: T4, polypeptide 4.3, FITC(Aha)STPRSSANMK …
[5] = molecular target: T5, polypeptide 4.4, FITC(Aha)STPVSFANMK …
[6] = molecular target: T6, polypeptide 4.8, …
[7] = molecular target: T7, polypeptide 4.6, …

Protein	Relative rate of glycosylation [1]	Relative rate of glycosylation [2]	Relative rate of glycosylation [3]	Relative rate of glycosylation [4]	Relative rate of glycosylation [5]	rate of proteolysis, unglycosylated against glycosylated polypeptide [6]	rate of proteolysis, unglycosylated against glycosylated polypeptide [7]
B1	0.15	1	0.7	0	0.4	–	–
B2	–	–	–	–	–	˜100-500 times faster	˜100-500 times faster
